Sequences and labels used below:
B1: Activin A (ligand, UniProt P08476 311-426, looked up)
chain: GLECDGKVNICCKKQFFVSFKDIGWNDWIIAPSGYHANYCEGECPSHIAGTSGSSLSFHSTVINHYRMRGHSPFANLKSCCVPTKLRPMSMLYYDDGQNIIKKDIQNMIVEECGCS
B2: Activin B (ligand, UniProt P09529 293-407, looked up)
chain: GLECDGRTNLCCRQQFFIDFRLIGWNDWIIAPTGYYGNYCEGSCPAYLAGVPGSASSFHTAVVNQYRMRGLNPGTVNSCCIPTKLSTMSMLYFDDEYNIVKRDVPNMIVEECGCA
B3: BMP-9 (ligand, UniProt Q9UK05 320-429, looked up)
chain: SAGAGSHCQKTSLRVNFEDIGWDSWIIAPKEYEAYECKGGCFFPLADDVTPTKHAIVQTLVHLKFPTKVGKACCVPTKLSPISVLYKDDMGVPTLKYHYEGMSVAECGCR
notes: also called bone morphogenetic protein 9
B4: BMP-10 (ligand, UniProt O95393 317-424, looked up)
chain: NAKGNYCKRTPLYIDFKEIGWDSWIIAPPGYEAYECRGVCNYPLAEHLTPTKHAIIQALVHLKNSQKASKACCVPTKLEPISILYLDKGVVTYKFKYEGMAVSECGCR
B5: GDF-11 (ligand, UniProt O95390 299-407, looked up)
chain: NLGLDCDEHSSESRCCRYPLTVDFEAFGWDWIIAPKRYKANYCSGQCEYMFMQKYPHTHLVQQANPRGSAGPCCTPTKMSPINMLYFNDKQQIIYGKIPGMVVDRCGCS
notes: also called growth and differentiation factor 11

Test [1] deals with T1, ActRIIB-A1 (SEQ ID NO: 120) chimera-Fc protein (Homo sapiens (Human), UniProt Q13705 28-134).
T1 construct: Tested as chimera-Fc protein; not shown: linker (if any) and Fc domain
T1 sequence: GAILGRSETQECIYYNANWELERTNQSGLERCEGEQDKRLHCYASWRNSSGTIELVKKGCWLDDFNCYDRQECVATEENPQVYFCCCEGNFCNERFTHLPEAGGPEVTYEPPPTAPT
As to the kind of experiment: SPR (Biacore 8K), Fc protein captured on anti-human IgG, ligand injected. The procedure: (§1) The Cytiva Biacore 8k was used to measure the kinetics of the interactions between the ActRII- and chimera-Fc proteins and Activin A/Activin B/growth differentiation factor 8 (GDF-8)/GDF-11/BMP-9/BMP-10. Series S CM4 Sensor Chips were immobilized with anti-human capture antibody using the reagents and protocol in the Biacore Human Antibody Capture Kit (GE Life Sciences). Briefly, anti-human IgG was diluted to 25 μg/mL in immobilization buffer. The carboxylated surface of the sensor was activated by injecting a mixture of EDC and NHS. The anti-human IgG was injected into the activated sensor chip flow cells at 10 μL/min for a total of 7 minutes until the chip reached an immobilization level of 3000 resonance units (RU). Ethanolamine was injected to deactivate the sensor surfaces. The chip has 8 flow cells to be used for binding analysis, each with an in-line reference surface to subtract instrument noise and non-specific binding to the sensor chip. The ActRII- and chimera-Fc proteins were captured in their own flow cell to allow for a maximum analyte binding response of 20-30 RU. This was done by injecting 10-20 μL of the ActRII- and chimera-Fc proteins into the flow cells at a concentration of 2 μg/mL until 60-90 RU was captured. Ligand at a single concentration was injected at […] for 60 seconds and then allowed to dissociate under buffer flow for no less than 5 minutes. After the cycle completed, captured protein was stripped from the chip with an injection of 3 M magnesium chloride, the regeneration buffer provided with the Biacore Human Antibody Capture Kit. Each ligand was injected in a concentration series, including a buffer only 0 nM concentration to serve as a double reference for subtracting out instrument noise. The data were analyzed using the Biacore Insight Evaluation Software.

For test [2], the target named is T2, ActRIIB (SEQ ID NO: 31) Fc protein (human, UniProt Q13705 20-134).
T2 construct: also called ActRII-Fc; wild-type extracellular ActRIIB; not shown: linker (if any) and Fc domain
T2 sequence: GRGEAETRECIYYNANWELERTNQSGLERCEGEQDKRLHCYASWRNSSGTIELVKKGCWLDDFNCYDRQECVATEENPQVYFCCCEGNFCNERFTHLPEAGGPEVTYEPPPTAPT
Described as above. The protocol: as §1

Test [3] deals with B5. The description is as above. The protocol:
as §1

The target of test [4] is B1. The description is as above. The procedure:
as §1

The target in test [5] is B2. The description is as above. The procedure:
as §1

The target in test [6] is T3, growth differentiation factor 8 (GDF-8) (UniProt O14793 267-375).
T3 construct: also called myostatin
T3 sequence (looked up): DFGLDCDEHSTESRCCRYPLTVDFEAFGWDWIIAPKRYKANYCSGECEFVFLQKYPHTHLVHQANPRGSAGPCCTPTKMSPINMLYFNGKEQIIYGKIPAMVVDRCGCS
Described as above. The procedure: as §1

The target of the test “BMP-10” is B4. The description is as above. The procedure: as §1
Test [7] addresses B3. The test is described as above. The protocol: as §1
Test [8] has as its target B5. As to the kind of experiment: cell-based or functional assay.
Test [9] has as its target B1. Description: cell-based or functional assay.
Test [10] addresses B2. As to the kind of experiment: cell-based or functional assay.
Test [11] deals with B3. As to the kind of experiment: cell-based or functional assay.

Some results are limits rather than exact numbers.

The molecule B1 registered a Kd in test [1] of 0.0448 nM.
B2 gave a Kd in test [1] of less than 0.001 nM.
Regarding B3, the Kd in test [2] amounted to 0.0358 nM; in test [1], 0.0151 nM.
On the same counts, the results for B4 are 0.0105 nM and 0.0175 nM.
On the same counts, the results for B5 are less than 0.001 nM and less than 0.001 nM.

B6: ActRIIA-A8 (SEQ ID NO: 110) chimera-Fc protein (Fc fusion)
chain: GAILGRSETQECLFFNANWEKDRTNQTGVEPCYGDKDKRRHCFATWKNISGSIEIVKQGCWLDDINCYDRTDCVEKKDSPEVYFCCCEGNMCNEKFSYFPEAGGPEVTYEPPPTAPT
notes: Tested as chimera-Fc protein; not shown: linker (if any) and Fc domain
As for B6, the Kd in the test with GDF-11 [3] is less than 0.001 nM; with Activin A [4], 0.04 nM; with Activin B [5] it was less than 0.001 nM; in test [6] it was 0.229 nM; with BMP-10, 0.0397 nM; with BMP-9 [7], 8.1 nM. The “IC50, SBE-luciferase reporter in HEK293 cells” value (from here on “IC50, SBE-luciferase reporter”) in the test with GDF-11 [8] was determined as 0.18 µg/mL; with Activin A [9], 0.075 µg/mL; with Activin B [10], 0.1 µg/mL. Moreover, in the test with BMP-9 [11], the “IC50, BRE-luciferase reporter in C2C12 cells” value (“IC50, BRE-luciferase reporter” below) was 1.9 µg/mL.

B7: ActRIIA-B2B4 (SEQ ID NO: 103) chimera-Fc protein (Fc fusion)
chain: GAILGRSETQECLEFNANWEKDRTNQSGLERCYGDKDKRRHCFATWKNISGTIELVKKGCWLDDINCYDRTDCVEKKDSPEVYFCCCEGNMCNEKFSYFPEMEVTQPTS
notes: as for B6
On to B7, for which the Kd in the test with GDF-11 [3] is less than 0.001 nM; with Activin A [4], 0.016 nM; with Activin B [5], less than 0.001 nM; in test [6], 0.0672 nM; in the test with BMP-10, 0.0605 nM; in the test with BMP-9 [7], 13.1 nM. For the same molecule, the figures for the “IC50, SBE-luciferase reporter” value in the test with GDF-11 [8], with Activin A [9] and with Activin B [10] were 0.29 µg/mL, 0.7 µg/mL and 0.16 µg/mL, respectively. For the same molecule, the “IC50, BRE-luciferase reporter” value with BMP-9 [11] was greater than 50 µg/mL.

B8: ActRIIA-B7 (SEQ ID NO: 100) chimera-Fc protein (Fc fusion)
chain: GAILGRSETQECLFFNANWEKDRTNQTGVEPCYGDKDKRRHCFATWKNISGSIEIVKQGCWLDDINCYDRTDCVEKKDSPEVYFCCCEGNMCNERFTHLPEMEVTQPTS
notes: as for B6
As to B8, the dissociation constant Kd in the test with GDF-11 [3] was less than 0.001 nM; in the test with Activin A [4], 0.024 nM; with Activin B [5] it was 0.00889 nM; in [6], 0.0121 nM; with BMP-10, 0.141 nM; with BMP-9 [7] it was 58.9 nM. The “IC50, SBE-luciferase reporter” value with GDF-11 [8] came out at 0.23 µg/mL; with Activin A [9], 0.84 µg/mL; in the test with Activin B [10], 0.18 µg/mL. In the test with BMP-9 [11], the “IC50, BRE-luciferase reporter” value came to 21 µg/mL.

B9: ActRIIA-B4 (SEQ ID NO: 98) chimera-Fc protein (Fc fusion)
chain: GAILGRSETQECLFFNANWEKDRTNQTGVEPCYGDKDKRRHCFATWKNISGTIELVKKGCWLDDINCYDRTDCVEKKDSPEVYFCCCEGNMCNEKFSYFPEMEVTQPTS
notes: as for B6
B9: the Kd with GDF-11 [3] is less than 0.001 nM; with Activin A [4], 0.0186 nM; with Activin B [5], less than 0.001 nM; in test [6], 0.115 nM; with BMP-10, 0.046 nM; in the test with BMP-9 [7], 13.6 nM. Besides, the “IC50, SBE-luciferase reporter” value in the test with GDF-11 [8] was determined as 0.22 µg/mL; with Activin A [9], 0.32 µg/mL; in the test with Activin B [10], 0.094 µg/mL. Besides, in the test with BMP-9 [11], the “IC50, BRE-luciferase reporter” value was greater than 50 µg/mL.

B10: ActRIIA-B3 (SEQ ID NO: 97) chimera-Fc protein (Fc fusion)
chain: GAILGRSETQECLFFNANWEKDRTNQTGVEPCYGDKDKRLHCYASWRNSSGSIEIVKQGCWLDDINCYDRTDCVEKKDSPEVYFCCCEGNMCNEKFSYFPEMEVTQPTS
notes: as for B6
Regarding B10, the Kd was less than 0.001 nM in the test with GDF-11 [3]; 0.0256 nM in the test with Activin A [4]; less than 0.001 nM with Activin B [5]; 0.0248 nM in [6]; 0.0122 nM in the test with BMP-10; 13.6 nM with BMP-9 [7]. Besides, the “IC50, SBE-luciferase reporter” value was found to be 0.13 µg/mL in the test with GDF-11 [8], 0.14 µg/mL in the test with Activin A [9] and 0.071 µg/mL with Activin B [10]. Also, the “IC50, BRE-luciferase reporter” value with BMP-9 [11] was greater than 50 µg/mL.

A word on the Kd: it is the free concentration of one partner at which half of the binding sites on the other are occupied at equilibrium, for simple one-to-one binding.

The values are drawn from patent US20250270287A1 (KEROS THERAPEUTICS, published 2025).
